Measurements taken from article PMC6421079.

Biological target: Rubiscolin-6 (Spinacia oleracea)
Test: [3H]DPDPE displacement radioligand binding

- Ki: 1000 nM
B1: Delta opioid receptor, P41143 (protein)
chain: MEPAPSAGAELQPPLFANASDAYPSACPSAGANASGPPGARSASSLALAIAITALYSAVCAVGLLGNVLVMFGIVRYTKMKTATNIYIFNLALADALATSTLPFQSAKYLMETWPFGELLCKAVLSIDYYNMFTSIFTLTMMSVDRYIAVCHPVKALDFRTPAKAKLINICIWVLASGVGVPIMVMAVTRPRDGAVVCMLQFPSPSWYWDTVTKICVFLFAFVVPILIITVCYGLMLLRLRSVRLLSGSKEKDRSLRRITRMVLVVVGAFVVCWAPIHIFVIVWTLVDIDRRDPLVVAALHLCIALGYANSSLNPVLYAFLDENFKRCFRQLCRKPCGRPDPSSFSRAREATARERVTACTPSDGPGGGAAA
